Assay results: article PMC8567585

target: T1, His-OsbR (Chromobacterium violaceum ATCC 12472) (UniProt Q7NR79); assay: EMSA; conditions: EMSA with 32P-labeled PCR probes and reduced His-OsbR; buffer, salt, pH and temperature not given (refers to earlier papers); CHP pretreatment at room …
T1 sequence: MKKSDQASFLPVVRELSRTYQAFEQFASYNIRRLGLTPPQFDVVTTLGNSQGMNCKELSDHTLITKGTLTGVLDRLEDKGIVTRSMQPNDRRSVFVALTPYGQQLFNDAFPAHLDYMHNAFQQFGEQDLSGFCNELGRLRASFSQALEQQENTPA

Substance	binding
CTCGCTGGCCGATCTGGGACGCGGCCCGGTGCGGGCGGCCGCCTGATCGCGGTTTCGCGCCCGCTTGGCGCGGGCGCGTCGCGGTTCCGCATAATAATAAATTGCTTGCAATTAAATAGTGCACTATTTATTATGCGGCCATGGAACAAGAAAACACGTGCCCGCCGCAGGACGCGCTTTTGCGGCTGGACCAGCAACTCTGCTTCGCGCTGTATTCCGCC (double strand) [ohrR promoter]	no binding
ATCGGGATGCCCAGCACCGCGAACATCATCCAGACCATGAAGCAGAGGGTGAAAGCCAGCGTGCTGCTGGCCAGCACGCTGTAGCGTTTGAATGTCGGGGAAGTCATGGCGCCATATCCATGGAGTGGTCATGGCTACCACGATAAGCGACGGCGGCGCGCGCCGATATTCGTCTGTCGCAGGACTGTCAGTCTGCCAACGGACGAGGCGGATTAACCCTTACGGCTGGCGCCGGCTACTCCCAATGGGGGAGAGTCA (double strand) [narK1 promoter]	no binding
GACCAAGTGATAGACGCCGGCACGCTGCGCGCGGTGTACGGCGTGAACGGCCGGGTGGAGCGCTGCACGCAGGGCGTGCCCCACGTGCTGGTGGACGGCCTGGCCGCAGGCTGAGCGCCGCGGCGGGGCGGCGCTCGCCGTCCCGCCCGATTGAAATCTTCACTCCCTCGCAAGAATGCGATTGAAATTGATATTCAATCGCATTTATGATGTCAGCCTCCGCTCAGGAGCCGCCCAGGCGGCCAAAACCAATAACAGGCAGACATCCTCATGACCGAGAAGCTTTAGGCC (double strand) [cbaF promoter]	no binding
GACCATACTAGACAGCTACGCCACCTTCAGCGCCATCGACCGCCACAGCGAAAGCCGCCAGAAACATCCCTTCGTCGCGCAATTGCTGCGCCGCTATCCGCAAATCACCACGCTG (double strand) [CV_0208 coding region]	no binding
TTGGATCCTGCCGGAGCGGAATGCAACTGGACGATATCGCCGGATTGAGGCAGTCGCTGTGCGATCTGCGCGACCGGCTGCTGCAATGAACCCGTCAGGGTTTTGATAGTTAGATAGTGCACTATTAAATAGCTCATTATTTTAATCGCAACGGCGTCAAGCCAAGGAGAGCCAGATGAACCCTCTGCAAAAAGTACTGTATACCGCCGAAGCCACCGCCTGCAGTAAT (double strand) [ohrA promoter]	binds
CCTCGTAAAAGCGGATGGCGCGGGTGGTGATGTCGAACTCCTGCGCGAGTTCGGTGATGTTGAAAACCTGTTCGCCCATGCGTCTGTCCCTTTATCTTCCCGCTGCGGCCACGCGCGCCACAGTCGGGTGCTTTTGCATTCATTGTCTGTTGACGTTGACGTAAACGTCAAGTTATCGTGATCGAAAGTAGAGCAAACAGTCCAGGAGAAGCAGATGAGCCAGAAAATCGGCGTGGTGGGCGCGGGCACGATGGGCAACGGCATCGCCCAGGTCTTCGCGATGAAGGGTTTCGACG (double strand) [CV_2087 promoter]	binds

target: His-OsbR (oxidative stress response and biofilm formation regulator, CV_3905, MarR family) (Chromobacterium violaceum); assay: non-reducing SDS-PAGE (covalent dimers after oxidation); purified His-OsbR incubated with the oxidants TBHP, CHP or H2O2 at 0.1 and 1 mM, room temperature, alkylated with 100 mM NEM for 2 h, non-reducing SDS-PAGE, Coomassie staining; monomer to covalent dimer; conditions: not given

Substance	stoichiometry N
His-OsbR (oxidative stress response and biofilm formation regulator, CV_3905, MarR family) (natural protein)	2
